Test results as given in patent US9938505B2, “Polypeptide composition and culture method for pluripotent stem cell using same” (FUJIFILM Corporation, priority 2013, dated 2018).

B1: Natural vitronectin: human vitronectin extracted from human blood plasma, BD Biosciences (protein, UniProt P04004 20-478, looked up)
Vitronectin: DQESCKGRCTEGFNVDKKCQCDELCSYYQSCCTDYTAECKPQVTRGDVFTMPEDEYTVYDDGEEKNNATVHEQVGGPSLTSDLQAQSKGNPEQTPVLKPEEEAPAPEVGASKPEGIDSRPETLHPGRPQPPAEEELCSGKPFDAFTDLKNGSLFAFRGQYCYELDEKAVRPGYPKLIRDVWGIEGPIDAAFTRINCQGKTYLFKGSQYWRFEDGVLDPDYPRNISDGFDGIPDNVDAALALPAHSYSGRERVYFFKGKQYWEYQFQHQPSQEECEGSSLSAVFEHFAMMQRDSWEDIFELLFWGRTSAGTRQPQFISRDWHGVPGQVDAAMAGRIYISGMAPRPSLAKKQRFRHRNRKGYRSQRGHSRGRNQNSRRPSRATWLSLFSSEESNLGANNYDDYRMDWLVPATCEPIQSVFFFSGDKYYRVNLRTRRVDTVDPPYPRSIAQYWLGCPAPGHL
B2: RCP-6: recombinant polypeptide SEQ ID NO: 19; human vitronectin positions 1-55, 270-459, C274S, C411S, C453S (protein)
chain: MDQESCKGRCTEGFNVDKKCQCDELCSYYQSCCTDYTAECKPQVTRGDVFTMPEDESQEESEGSSLSAVFEHFAMMQRDSWEDIFELLFWGRTSAGTRQPQFISRDWHGVPGQVDAAMAGRIYISGMAPRPSLAKKQRFRHRNRKGYRSQRGHSRGRNQNSRRPSRATWLSLFSSEESNLGANNYDDYRMDWLVPATSEPIQSVFFFSGDKYYRVNLRTRRVDTVDPPYPRSIAQYWLGSPAPGHL
modifications: Synthetic peptide RCP-6
notes: human vitronectin positions 1-55, 270-459, C274S, C411S, C453S
B3: RCP-7: recombinant polypeptide SEQ ID NO: 20; human vitronectin positions 1-55, 270-373, C274S (protein)
chain: MDQESCKGRCTEGFNVDKKCQCDELCSYYQSCCTDYTAECKPQVTRGDVFTMPEDESQEESEGSSLSAVFEHFAMMQRDSWEDIFELLFWGRTSAGTRQPQFISRDWHGVPGQVDAAMAGRIYISGMAPRPSLAKKQRFRHRNRKGYRSQRGHSRGRNQN
modifications: Synthetic peptide RCP-7
notes: human vitronectin positions 1-55, 270-373, C274S
B4: RCP-8: recombinant polypeptide SEQ ID NO: 21; human vitronectin positions 1-55, 270-373, 374-379, C274S (protein)
chain: MDQESCKGRCTEGFNVDKKCQCDELCSYYQSCCTDYTAECKPQVTRGDVFTMPEDESQEESEGSSLSAVFEHFAMMQRDSWEDIFELLFWGRTSAGTRQPQFISRDWHGVPGQVDAAMAGRIYISGMAPRPSLAKKQRFRHRNRKGYRSQRGHSRGRNQNSRRPSR
modifications: Synthetic peptide RCP-8
notes: human vitronectin positions 1-55, 270-373, 374-379, C274S
B5: RCP-17: recombinant polypeptide SEQ ID NO: 39; human vitronectin positions 1-55, 270-277, 295-341, 342-373, C274S (protein)
chain: MDQESCKGRCTEGFNVDKKCQCDELCSYYQSCCTDYTAECKPQVTRGDVFTMPEDESQEESEGSEDIFELLFWGRTSAGTRQPQFISRDWHGVPGQVDAAMAGRIYISGMAPRPSLAKKQRFRHRNRKGYRSQRGHSRGRNQN
modifications: Synthetic peptide RCP-17
notes: human vitronectin positions 1-55, 270-277, 295-341, 342-373, C274S

What was measured:
iPS cells = assay: Evaluation of maintenance of undifferentiated state (colony form, NANOG staining); assay type: cell-based, human; conditions: FIGS. 4A to 4E; after culture for 1 month
Description: iPS cells collected in the same manner as in <Cell adhesiveness evaluation 1> were suspended in TeSR2. The iPS cells were seeded into 6-well plate (Tissue culture-treated, Falcon), onto which each of the samples 1, 2, 5, 6, and 7 used in <Cell adhesiveness evaluation 1> was adsorbed in the same manner as in <Cell adhesiveness evaluation 1>, and cultured in a CO2 incubator at 37° C. Except for the day after the seeding, the medium was replaced every day. In the same method as described above, the cells were subcultured every six days. FIGS. 3A to 3E show forms of the iPS cells cultured on each of the samples.
After being cultured for 1 month under the conditions described above, the cells were immobilized using 4% paraformaldehyde and treated with 1% Triton-X/PBS so as to enhance the membrane permeability. After the cells were subjected to a blocking treatment using an IMAGE IT SIGNAL ENHANCER (trade name, Invitrogen), an anti-human NANOG antibody (AF 1997, R&D Systems, Inc.), an ALEXA FLUOR 555 binding rabbit anti-goat IgG antibody (Invitrogen), and DAPI (Dojindo Molecular Technologies, Inc.) were added thereto for labeling, and the cells were imaged using a fluorescence microscope. FIGS. 4A to 4E show the fluorescence microscopic images.
FIGS. 3A and 4A show the iPS cells cultured on RCP-1; FIGS. 3B and 4B show the iPS cells cultured on RCP-11; FIGS. 3C and 4C show the iPS cells cultured on natural human vitronectin; FIGS. 3D and 4D show the iPS cells cultured on rLaminin-5; and FIGS. 3E and 4E show the iPS cells cultured on rLaminin-511. The scale bar in the images indicates […]. In FIGS. 3A to 3E, the images on the left side are full images of the colony, and the images on the right side are magnified images. In FIGS. 4A to 4E, the images on the left side are images of the cells stained with DAPI, and the images on the right side are images of the cells stained with an anti-NANOG antibody. The scale bar in FIGS. 3A to 4E indicates 200 μm.

[1] = Aggregation after dialysis (removal of urea); assay type: physicochemical; conditions: after stepwise dialysis against PBS, 1.5 M NaCl, 0.5 M L-arginine, 1 mM EDTA, pH 7.4
Description: For RCP-1 to RCP-10 and RCP-17, each of the purified polypeptide solutions was dialyzed using SLIDE-A-LIZER (trade name, 3.5 K MWCO.). Basically, by using a dialysis buffer (PBS, 1.5 M NaCl, 0.5 M L-arginine, 1 mM EDTA, pH 7.4) as an outer dialysate, urea was removed by stepwise dialysis. The concentration of the end-product of dialysis was calculated from the absorbence at 280 nm by using NANODROP (trade name, Thermo Fisher Scientific Inc.).
Furthermore, the indices of hydrophobicity determined for each of the amino acids were summed up, the obtained value was divided by the number of the amino acids, and the outcome was determined as the GRAVY value (see Kyte J., Doolittle R. F. (1982), J. Mol. Biol, 157: 105-132). The GRAVY value is an index of the hydrophilicity and hydrophobicity of a polypeptide calculated from the degree of hydrophobicity of the amino acids contained in each polypeptide. The greater the GRAVY value, the more the polypeptide is hydrophobic, and the smaller the GRAVY value, the more the polypeptide is hydrophilic. The results are shown in Table 4. • Whether or not aggregation was occurred was evaluated based on the scale of G, A, and B as shown below. The results are summarized in Table 4. • G: The formation of an aggregate was not observed. • A: The formation of particles having a particle size of about 100 nm was observed. • B: The formation of an aggregation of particles having a particle size of equal to or greater than 1 mm was visually observed.

Molecule	NANOG expression / maintenance of undifferentiated state (iPS cells)	Aggregation [1]
B1	strongly expressed NANOG in the entirety of the colony	
B2		A (The formation of particles having a particle size of about 100 nm was observed.)
B3		A (The formation of particles having a particle size of about 100 nm was observed.)
B4		A (The formation of particles having a particle size of about 100 nm was observed.)
B5		A (The formation of particles having a particle size of about 100 nm was observed.)
